According to publication PMC6299077 (Nature Communications, 2018):

Target: the molecule itself
Assay: SEC; […] (~2.7–27 μM), […] (pH 4.4–5.6); […]

B1: tHN of BoNT/A1 (beltless translocation domain of botulinum neurotoxin A1, residues K547–K871) (domain or fragment)
chain: KYTMFHYLRAQEFEHGKSRIALTNSVNEALLNPSRVYTFFSSDYVKKVNKATEAAMFLGWVEQLVYDFTDETSEVSTTDKIADITIIIPYIGPALNIGNMLYKDDFVGALIFSGAVILLEFIPEIAIPVLGTFALVSYIANKVLTVQTIDNALSKRNEKWDEVYKYIVTNWLAKVNTQIDLIRKKMKEALENQAEATKAIINYQYNQYTEEEKNNINFNIDDLSSKLNESINKAMININKFLNQCSVSYLMNSMIPYGVKRLEDFDASLKDALLKYIYDNRGTLIGQVDRLKDKVNNTLSTDIPFQLSKYVDNQRLLSTFTEYIK
Q: Does B1 bind?
A: binds
